The record followed here is patent publication US20220017636A1 (Amgen, published 2022).

Common to all, as to assay: flow cytometry, peptide-loaded T2 cells;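 further: binding of single-chain Fv antibody constructs, raised in XenoMouse, to peptide-pulsed T2 cells measured by flow cytometry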
Background: Flow cytometry measures light scatter and fluorescence of single cells or particles in a stream.

For assay [1], the target named is T1, MB peptide complexed with HLA-A*02:01 on T2 cells (human).
T1 construct: whole, on cells

The target of assay [2] is T2, KEA peptide complexed with HLA-A*02:01 on T2 cells (human).
T2 construct: whole, on cells

Assay [3] concerns the target T3, COX14 peptide complexed with HLA-A*02:01 on T2 cells (human).
T3 construct: whole, on cells

Assay [4] concerns the target T4, SLK peptide complexed with HLA-A*02:01 on T2 cells (human).
T4 construct: whole, on cells

The target in assay [5] is T5, MAGEB2 peptide … (SEQ ID NO: 1) complexed with HLA-A*02:01 on the cell surface (human).
T5 construct: whole, on cells; also called pMAGE-HLA; MAGEB2 pMHC

In assay [6] the target is T6, MYOF peptide complexed with HLA-A*02:01 on T2 cells (human).
T6 construct: whole, on cells

The target of assay [7] is T7, DPYSL4 peptide complexed with HLA-A*02:01 on T2 cells (human).
T7 construct: whole, on cells

In assay [8] the target is T8, STXBP5 peptide complexed with HLA-A*02:01 on T2 cells (human).
T8 construct: whole, on cells

The target in assay [9] is T9, ADF peptide complexed with HLA-A*02:01 on T2 cells (human).
T9 construct: whole, on cells

Assay [10] addresses T10, CNDP2 peptide complexed with HLA-A*02:01 on T2 cells (human).
T10 construct: whole, on cells; also called CNPD2

B1: 18089-D12 (scFv)
scFv: EVQLLESGGGVVQPGRSLRLSCAASGFTFSTYGMHWVRQAPGKGLEWVAVISYDGSNKYYADSVKGRFTISRDDSKNTLYLQMNSLRAEDTAVYYCARGQLLTGYWGQGTLVTVSSGGGGSGGGGSGGGGSELVMTQSPSSLSASVGDRVTITCRASQGISNYLAWYQQKPGKVPKLLIYAASTLQSGVPSRFSGSGSGTDFTLTISSLQPEDVATYYCQKYNSAPFTFGPGTKVEIK
notes: scFv in bacterial lysate, detected with anti-Flag M2
For B1, the Signal/background in assay [1] was found to be 1.1; in assay [2] it was 1; in assay [3] it was 1.1; in [4], 1.3; in assay [5] it was 176; in [6], 1.1. Also, the Signal/background in assay [7] was 1.1; in assay [8] it was 1; in [9], 1.1; in [10] it was 1.

B2: 18182-B5 (scFv)
scFv: EVQLLESGGGLVQPGGSLRLSCAASGFTFSSHAMSWVRQAPGKGLEWVSAISGSGGGTYYADSVKGRFTISRDNSKNTLYLQMNSLRAEDTAVYYCATGKGVHLGFDYWGQGTLVTVSSGGGGSGGGGSGGGGSELVLTQPPSVSVAPGQTARITCGGNNIGSKSVHWYQQKPGQAPVLVVYDDNDRPSGIPERFSGSNFGNTATLIISRVEAGDEADYYCQVWDSSSDHVVFGGGTKLTVL
notes: as for B1
Take B2: the Signal/background in [1] was 1; in assay [2] it was 0.9; in assay [3], 1; in [4], 1; in [5] it was 560; in [6], 1. The Signal/background in assay [7] amounted to 1; in [8] it was 1; in assay [9], 0.9; in assay [10], 1.

B3: 18182-E1 (scFv)
scFv: EVQLLESGGGLVQPGGSLRLSCAASGFTFSSHAMSWVRQAPGKGLEWVSAISGSGGGTYNADSVKGRFTISRDNSKNTLYLQMNSLRAEDTAAYYCVTGKGVHLGFDYWGQGTLVTVSSGGGGSGGGGSGGGGSELVLTQPPSVSVAPGQTARITCGGNNIGSKSVHWYQQKPGQAPVMVVYDDNDRPSGIPERFSGSNSGNTATLTISRVEAGDEADYYCQVWDSSSDHVVFGGGTKLTVL
notes: as for B1
As to B3, the Signal/background came to 0.9 in assay [1]; 0.9 in [2]; 0.8 in assay [3]; 1 in assay [4]; 193 in [5]; 0.9 in assay [6]. Besides, the Signal/background in assay [7] is 0.9; in assay [8] it was 1; in [9] it was 1; in assay [10], 0.9.

B4: 18182-E6 (scFv)
scFv: EVQLLESGGGLVQPGGSLRLSCAASGFTFSSYAMSWVRQAPGKGLEWVSAISGSGGGTYYADSVKGRFTISRDNSKNTLYLQMNSLRAEDTAVYYCATGKGVHLNFDYWGQGTLVTVSSGGGGSGGGGSGGGGSELVLTQPSSVSVAPGQTARITCGGNNIGSKSVHWYQQKPGQAPVLVVYDDNDRPSGIPERFSGSNFGNTATLIISRVAAGDEADYYCQVWDSSSDHVVFGGGTKLTVL
notes: as for B1
B4: the Signal/background in [1] turned out to be 0.9; in assay [2], 0.9; in assay [3] it was 1; in assay [4], 1; in [5], 431; in assay [6], 1. Further, the Signal/background in assay [7] worked out at 0.9; in assay [8], 0.9; in assay [9], 1; in [10], 1.

B5: 18182-G6 (scFv)
scFv: EVQLLESGGGLVQPGGSLRLSCAASGFTFSSYAMSWVRQAPGKGLEWVSAISGSGGGTYYADSVKGRFTISRDNSKNTLYLQMNSLRAEDTAAYYCVTGKGVHLGFDYWGQGTLVTVSSGGGGSGGGGSGGGGSELVLTQPPSVSVAPGQTARITCGGNNIGSKSVHWHQQKPGQSPVLVIYDDNDRPSGIPERFSGFNSGNTATLTISRVEAGDEADYYCQVWDSSSDHVVFGGGTKLTVL
notes: as for B1
For B5, the Signal/background in assay [1] amounted to 1; in [2] it was 1; in assay [3], 1; in [4], 1; in [5] it was 365; in assay [6], 1. The Signal/background in [7], in [8], in assay [9] and in [10] was 1 each time.

B6: 18182-E5 (scFv)
scFv: EVQLLESGGGLVQPGGSLRLSCAASGFTFSSYAMSWVRQAPGKGLEWVSTISGSGGGTYYADSVKGRFTISRDNSKNTLYLQMNSLRAEDTAVYYCATGKGVHLGFDYWGQGTLVTVSSGGGGSGGGGSGGGGSELVLTQPPSVSVAPGQTARITCGGNNIGSKSVHWHQQKPGQAPVLVVYDDNDRPSGIPERFSGSNSGNTATLTISRVEAGDEADYYCQVWDYSSDHVVFGGGTKLTVL
notes: as for B1
With B6, the Signal/background stood at 0.9 in assay [1]; 0.9 in assay [2]; 0.9 in assay [3]; 1 in [4]; 205 in [5]; 0.9 in assay [6]. The Signal/background in [7] is 1; in [8] it was 0.8; in assay [9], 1; in assay [10] it was 0.8.

B7: 18182-G2 (scFv)
scFv: EVQLLESGGGLVQPGGSLRLSCAASGFTFSSHAMSWVRQAPGKGLEWVSAISGSGGGTYNADSVKGRFTISRDNSKNTLYLQMNSLRAEDTAAYYCVTGKGVHLGFDYWGQGTLVTVSSGGGGSGGGGSGGGGSELVLTQPPSVSVAPGQTARITCGGNNIGSKSVHWYQQKPGQAPVMVVYDDNDRPSGIPERFSGSNSGNTATLTISRVEAGDEADYYCQVWDSSSDHVIFGGGTKLTVL
notes: as for B1
Regarding B7, the Signal/background in assay [1] is 1; in assay [2], 0.9; in [3] it was 0.9; in [4] it was 1; in [5], 320; in assay [6], 1. Also, the Signal/background stood at 1.1 in assay [7], 0.9 in [8], 1 in assay [9] and 1 in [10].

B8: 18182-B12 (scFv)
scFv: EVQLLESGGGLVQPGGSLRLSCAASGFTFSSYAMSWVRQAPGKGLEWVSAISGSGGGTYYADSVKGRFTISRDNSKNTLYLQMSSLRAEDTAVYYCATGKGVHLGFDYWGQGTLVTVSSGGGGSGGGGSGGGGSELVLTQPPSVSVAPGQTARITCGGNNIGSKSVHWHQQKPGQAPVLVVYDDNDRPSGIPERFSGSNSGNTATLTISRVEAGDEADYYCQVWDYSSDHVVFGGGTKLTVL
notes: as for B1
For B8, the Signal/background in assay [1] was 0.8; in [2] it was 0.9; in assay [3], 1; in assay [4], 0.9; in assay [5], 208; in [6] it was 0.8. Also, the Signal/background was determined as 1 in assay [7], 0.9 in assay [8], 1 in assay [9] and 0.8 in assay [10].

B9: 18182-E10 (scFv)
scFv: EVQLLESGGGLVQPGGSLRLSCAASGFTFSSHAMSWVRQAPGQGLEWVSSISGSGGGTYYAASVKGRFTISRDNSKNTLYLQMNSLRAEDTAVYYCATGKGVHLNFDYWGQGTLVTVSSGGGGSGGGGSGGGGSELALTQPASASVAPGQTARITCGGNNIGSKSVHWHQQKPGQAPVLVVYDDNDRPSGIPERFSGSNSGNTATLTISRVEAGDEADFYCQVWDSSSDHVVFGGGTKLTVL
notes: as for B1
On to B9, for which the Signal/background in assay [1] came to 0.9; in [2], 0.8; in assay [3], 0.9; in assay [4] it was 1; in [5], 273; in [6], 0.9. In addition, the Signal/background in [7] is 0.9; in assay [8] it was 0.8; in assay [9], 0.9; in assay [10] it was 0.8.

B10: 18182-A4 (scFv)
scFv: EVQLLESGGGVVQPGRSLRLSCAASGFTFSSYAMTWVRQAPGQGLEWVSSISGSGGGTYYAASVKGRFTISRDNSKNTLYLQMNSLRAEDTAVYYCATGKGVHLGFDYWGQGTLVTVSSGGGGSGGGGSGGGGSELVLTQPPSVSVAPGQTARITCGGNNIGSKSVHWYQQKPGQAPVLVVYDDNDRPSGIPERFSGSNFGNTATLIISRVAAGDEADYYCQVWDSSSDHVVFGGGTKLTVL
notes: as for B1
Turning to B10, the Signal/background in assay [1] worked out at 1; in assay [2], 0.9; in assay [3], 0.9; in assay [4], 1; in assay [5], 202; in assay [6] it was 1. Further, the Signal/background came out at 1 in assay [7], 0.8 in assay [8], 1.1 in assay [9] and 0.8 in assay [10].
